Assays:
[1] = biological target: Full-length αvβ3 integrin (UniProt P06756); test: SPR; BIAcore T100; αvβ3 integrin immobilised via primary amines on a CM5 chip (1341-2655 RU); NC1 α4(IV) injected at several concentrations and flow rates; 25°C; 10 mM Hepes pH 7.4, 150 mM NaCl, 1 mM MgCl2, 2 mM MnCl2, 50 mM β-octyl-D-glucopyranoside; global fit, two-state model
[2] = biological target: Full-length αvβ3 integrin (UniProt P06756)

Chain of UniProt P06756 (P06756 31-1048, chain 1 of 2): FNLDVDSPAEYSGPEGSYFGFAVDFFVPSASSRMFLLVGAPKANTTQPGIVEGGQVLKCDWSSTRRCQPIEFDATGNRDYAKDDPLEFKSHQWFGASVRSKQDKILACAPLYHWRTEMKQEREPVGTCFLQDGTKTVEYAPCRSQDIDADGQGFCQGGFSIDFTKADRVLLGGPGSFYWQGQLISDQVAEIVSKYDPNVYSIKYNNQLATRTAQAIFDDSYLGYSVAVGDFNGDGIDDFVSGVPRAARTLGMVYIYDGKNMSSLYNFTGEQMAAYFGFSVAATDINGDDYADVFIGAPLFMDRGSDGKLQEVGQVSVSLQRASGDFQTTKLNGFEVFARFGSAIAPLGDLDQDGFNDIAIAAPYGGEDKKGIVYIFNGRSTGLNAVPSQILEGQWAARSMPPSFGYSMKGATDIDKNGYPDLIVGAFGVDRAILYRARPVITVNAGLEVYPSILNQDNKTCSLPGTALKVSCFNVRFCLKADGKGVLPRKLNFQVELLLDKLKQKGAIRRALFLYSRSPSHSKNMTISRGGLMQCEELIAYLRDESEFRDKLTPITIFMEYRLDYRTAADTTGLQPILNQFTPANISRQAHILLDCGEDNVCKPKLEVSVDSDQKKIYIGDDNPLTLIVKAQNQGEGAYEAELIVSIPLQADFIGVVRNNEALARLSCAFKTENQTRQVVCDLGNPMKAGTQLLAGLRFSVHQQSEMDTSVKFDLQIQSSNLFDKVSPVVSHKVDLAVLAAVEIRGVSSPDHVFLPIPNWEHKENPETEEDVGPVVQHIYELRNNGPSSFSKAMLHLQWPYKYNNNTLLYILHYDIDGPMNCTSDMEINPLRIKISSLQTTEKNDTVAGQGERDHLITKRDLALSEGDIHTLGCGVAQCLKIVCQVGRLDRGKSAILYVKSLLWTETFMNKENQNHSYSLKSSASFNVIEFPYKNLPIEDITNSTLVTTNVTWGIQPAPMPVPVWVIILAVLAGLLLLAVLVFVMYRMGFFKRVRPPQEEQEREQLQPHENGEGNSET
Chain of UniProt P06756 (P05106 27-788, chain 2 of 2, further chain): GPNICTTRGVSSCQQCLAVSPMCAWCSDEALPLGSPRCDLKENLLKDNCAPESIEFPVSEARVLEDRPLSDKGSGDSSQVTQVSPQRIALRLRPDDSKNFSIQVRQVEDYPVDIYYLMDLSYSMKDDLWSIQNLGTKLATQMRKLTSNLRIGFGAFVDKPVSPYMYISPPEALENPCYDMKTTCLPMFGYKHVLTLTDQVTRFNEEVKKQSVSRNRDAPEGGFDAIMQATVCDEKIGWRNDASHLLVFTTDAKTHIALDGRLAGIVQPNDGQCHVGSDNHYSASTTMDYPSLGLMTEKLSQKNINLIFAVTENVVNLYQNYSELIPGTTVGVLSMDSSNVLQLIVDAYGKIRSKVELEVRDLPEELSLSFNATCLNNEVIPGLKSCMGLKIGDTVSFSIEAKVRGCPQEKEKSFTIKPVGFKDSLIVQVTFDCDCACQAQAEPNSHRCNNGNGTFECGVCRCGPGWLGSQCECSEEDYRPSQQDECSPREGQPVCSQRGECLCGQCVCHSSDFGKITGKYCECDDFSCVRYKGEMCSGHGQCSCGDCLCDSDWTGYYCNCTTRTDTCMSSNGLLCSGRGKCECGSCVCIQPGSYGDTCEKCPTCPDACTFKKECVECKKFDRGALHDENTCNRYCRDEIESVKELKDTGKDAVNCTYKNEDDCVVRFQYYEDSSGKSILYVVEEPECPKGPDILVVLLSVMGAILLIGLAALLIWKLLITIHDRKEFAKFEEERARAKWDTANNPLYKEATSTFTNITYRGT

Kd [1]: 0.148 µM | adhesion of UACC-903 melanoma cells on recombinant NC1 α4(IV) substratum; change after preincubation of the cells with an anti-αvβ3 integrin blocking antibody (10 µg/mL); irrelevant IgG had no effect [2]: -38%
Substance: Recombinant human NC1 α4(IV) domain (NC1[α4(IV)1-229]) (domain or fragment)

From article PMC3335157
